Substitutions are numbered along the chain they refer to.
B1: 7.7h8 (antibody, V domains shown)
VH: QVQLVESGGGVVQTGRSLRLSCAASGFTFSAYAMHWVRQAPGKGLEWVTFIGYEESNKYHADSVKGRFTISRDNSKNTLYLQMNSLRAEDTAVYYCARDRGISVAATWDYYYYYGMDVWGQGTTVTVSS
VL: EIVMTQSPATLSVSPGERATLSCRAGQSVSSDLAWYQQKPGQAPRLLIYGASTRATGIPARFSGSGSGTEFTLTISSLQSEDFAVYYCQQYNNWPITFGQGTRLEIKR
B2: 5.5e11 (antibody, V domains shown)
VH: QVQLVQSGAEVKKPGSSVKISCKASGGTFSTHAFTWVRQAPGQGLEWIGRIIPIFDTPKYAQKFQGRVTIAADISTSTVFMELSSLRSEDTAVFYCAREGYYISGSYRDAFDIWGQGTMVTVSS
VL: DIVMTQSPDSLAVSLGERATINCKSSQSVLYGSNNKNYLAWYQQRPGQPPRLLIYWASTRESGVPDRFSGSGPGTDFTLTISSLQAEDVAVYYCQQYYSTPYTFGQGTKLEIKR
B3: 1.10e9 (antibody, V domains shown)
VH: QVQLQQSGPGLVKPSQTLSLTCAISGDSVSSNSAAWNWIRQSPSRGLEWLGRTYYRSKWYNDYAVSVKSRITINPNTSKNQFSLQLNPVTPEDTAVYFCAREWFGEGYFDLWGRGTLVTVSS
VL: EIVMTQSPATLSVSPGESATLSCRASQTIYSNLAWYQRKPGQAPRLLIYRASTRATGIPARFSGSGSGTEFTLTISSLQSEDFAVYCCQQFNNWPYTFGQGTKLEIKR
B4: 1.3h2 (antibody, V domains shown)
VH: QVQLVESGGGVVQPGRSLRLSCAASGFTFSRYGMHWVRQAPGKGLQWVAFIWYDGSNKYYADAVKVRFTISRDNSKNTLYLQMNSLRAEDTAVYYCATEGDYYGSGSYSRAEYFQEWGQGTLVTVSS
VL: EIVMTQSPATLSVSPGERATLSCRASQSVSINLAWYQQKPGQAPRLLIYDTSARATGIPARFSGSGSGTEFTLTISSLQSEDFAVYYCQQYNNWPFTFGPGTKVDIKR
B5: 7.2h5 (antibody, V domains shown)
VH: QVQLVQSGAEVKKPGSSVKVSCKASGGTFSSYAISWVRQAPGQGLEWMGGIIPIFGTVKNAQKFQGRVTITADKSTGTAYMELSSLRSEDTAVYYCARDHYYDSNDYYWYFDLWGRGTLVTVSS
VL: B4 VL with I31S, Q38K, D50G, T51A, A53T, A55V, F96L, P100G, D105E
B6: 7.9c10 (antibody, V domains shown)
VH: QVQLVESGGDVVQPGRSLRLSCAASGITFSNYGMHWVRQAPGKGLEWVAVIWYDGSNKYYADSVKGRFTISRDNSKNTLYLQMNSLRAEDTAVYYCARDRGMTGTTWEYYYYYGMDVWGQGTTVTVSS
VL: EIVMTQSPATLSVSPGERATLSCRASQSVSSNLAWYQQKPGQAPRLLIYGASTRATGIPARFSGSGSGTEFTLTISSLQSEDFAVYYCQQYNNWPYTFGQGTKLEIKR
B7: 1.3g2 (antibody, V domains shown)
VH: QVQLVQSGAEVKKPGSSVKVSCKASGGTFSTYAISWVRQAPGQGLEWMGGIIPIFGTANYAQKFQGRVTIIADKSTNTAYMDLSSLRSEDTAVYYCAREGNLGYDVVTGYSYFVYWGQGTLVTVSS
VL: EIVLTQSPGTLSLSPGERATLSCRASQSVSSSYLAWYQQKPDQVPRLLIYGTSSRATGIPDRFSGSGSGTDFTLTISRLEPEDFAVYYCQQYGRSLTFGGGTKVEIKR
B8: 2.9d7 (antibody, V domains shown)
VH: QRKLVESGGGVVQPGRSLRLSCAVSGLIFSNYGMHWVRQAPGKGLEWVAVIWYDGSNTYYTDSVKGRFTISRDNSKNTLYLQMNSLRAEDTAVYYCARDRGMTAPGPGTYYYFYGMDVWGQGTTVTVSS
VL: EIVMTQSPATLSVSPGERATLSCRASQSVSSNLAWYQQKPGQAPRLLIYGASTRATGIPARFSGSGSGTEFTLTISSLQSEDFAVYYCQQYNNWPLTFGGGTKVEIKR
B9: 7.9g10 (antibody, V domains shown)
VH: QVQLVQSGAEVKKPGSSVKVSCKASGGTFSSYAISWVRQAPGQGLEWMGGIIPIFGTANYAQKFQGRVTITADKSTNTAYMELSSLRSEDTAVYYCAREDITMVRGVITNYWYFDLWGRGTLVTVSS
VL: DIQMTQSPSSLSASVGDRVTITCRASQDISNYLAWYQQKPGKVPKLLIYAASTLQSGVPSRFSGSGSGTDFTLTISSLQPEDVATYYCQKSNNAPLTFGGGTKVEIKR
B10: 7.3a9 (antibody, V domains shown)
VH: QVQLVESGGGVVQPGRSLRLSCAASGFNFSSDGMHWVRQAPGKGLEWVAVIWYDGRNKYYADSVKGRFTISRDNTKNTLYLQMNSLRAEDTAVYYCARDRGITMGRGPYYYYYGMDVWGQGTTVTVSS
VL: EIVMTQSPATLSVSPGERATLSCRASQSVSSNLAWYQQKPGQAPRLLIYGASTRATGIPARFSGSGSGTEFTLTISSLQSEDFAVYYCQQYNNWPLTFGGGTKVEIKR
B11: 5.2b7 (antibody, V domains shown)
VH: B10 VH with N28T, Y53F, R56S, T75S, L79M, A97T, P108R
VL: B4 VL with S30G, I31S, D50G, T51A, A53T, F96L, P100G, D105E, I106M
B12: 7.6c11 (antibody, V domains shown)
VH: B10 VH with N28T, R56S, N57S, K58E, A61G, T75S, P108V
VL: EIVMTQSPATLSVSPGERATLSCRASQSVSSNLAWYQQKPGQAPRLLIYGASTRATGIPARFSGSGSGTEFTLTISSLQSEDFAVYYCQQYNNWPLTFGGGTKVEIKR
B13: 7.9g1 (antibody, V domains shown)
VH: QVQLVESGGGVVQPGRSLRLSCAASGFTFSTYAMHWVRQAPGKGLEWVAVIWYDGSNKYYADSVKGRLTISRDNSKNTLFLQMNSLRAEDTAVYYCARDRGITTTDTGYYYYYYGLDIWGQGTTVTVSS
VL: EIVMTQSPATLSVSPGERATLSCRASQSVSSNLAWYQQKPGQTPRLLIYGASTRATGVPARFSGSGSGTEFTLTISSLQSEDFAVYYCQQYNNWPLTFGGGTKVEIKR
B14: 7.5d3 (antibody, V domains shown)
VH: QVQLVESGGGVVQPGRSLRLSCAATGFTFSYYGMHWVRQAPGKGLEWVAVIWFDGTNIYYADSVRGRFTISRDNSKNTLYLQMNSLRAEDSAVYYCARDRRSSDWYVVFDYWGQGTLVTVSS
VL: DIQLTQSPSFLSASVGDRVTITCRASQGISSYLAWYQQKPGKAPKLLIYAASTLQSGVPSRFSGSGSGTEFTLTISSLQPEDFATYYCQQLNSYPWTFGQGTKVEIKR
B15: 4.2c3 (antibody, V domains shown)
VH: QVQLVESGGGVVQPGRSLRLSCTASGFTFSGYGMHWVRQAPGKGLEWVAIIWYDGSNTYYADSAKGRFTISRDNSKNTLYLQMNSLRVEDTAVYYCARDRGISVAALWKYYYYHGLDVWGQGTTVTVSS
VL: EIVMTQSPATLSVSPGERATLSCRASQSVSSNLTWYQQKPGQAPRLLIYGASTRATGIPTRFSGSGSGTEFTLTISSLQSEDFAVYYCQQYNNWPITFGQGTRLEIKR
B16: 4.9f12 (antibody, V domains shown)
VH: B15 VH with R16M, G33A, G42V, T58K, A64V, V88A, V104E, L107K, H114Y, L116M
VL: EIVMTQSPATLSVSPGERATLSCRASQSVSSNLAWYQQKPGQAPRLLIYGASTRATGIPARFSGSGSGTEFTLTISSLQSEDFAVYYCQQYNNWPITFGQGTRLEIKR
B17: 4.7a6 (antibody, V domains shown)
VH: B15 VH with G33A, G42V, T58K, A64V, V88A, V104E, L107K, H114Y, L116M
VL: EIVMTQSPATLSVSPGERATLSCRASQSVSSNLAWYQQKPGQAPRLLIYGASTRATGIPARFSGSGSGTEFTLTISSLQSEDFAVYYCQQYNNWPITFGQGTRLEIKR
B18: 7.7f3 (antibody, V domains shown)
VH: B15 VH with A61T, N77D, V125T
VL: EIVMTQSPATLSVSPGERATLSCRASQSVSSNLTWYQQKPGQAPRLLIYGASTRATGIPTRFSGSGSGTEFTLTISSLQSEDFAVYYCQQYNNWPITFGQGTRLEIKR
B19: 1.6c2 (antibody, V domains shown)
VH: QVQLVQSGTEVKKPGSSVKVSCKASGGAFSAYAITWVRQAPGQGLEWMGGIIPIFGTAHYAQKFQGRVTITADKSTSTAFMELSSLRSEDTAVYYCAREGDIEVVLAGRGYFDYWGQGTLVTVSS
VL: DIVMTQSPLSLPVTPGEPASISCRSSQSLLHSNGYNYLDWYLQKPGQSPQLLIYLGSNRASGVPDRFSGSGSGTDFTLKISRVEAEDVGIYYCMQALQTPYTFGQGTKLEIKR
B20: 1.6e1 (antibody, V domains shown)
VH: B19 VH with T9A, T35S, H59N, K74T, F80Y, G108A, Y111F
VL: B9 VL with D28G, S91Y, N93S, L96W, G100Q
B21: 5.11h8 (antibody, V domains shown)
VH: B19 VH with T9A, T35D, F64L, F80Y, I102S, E103G, V104L, G108A, Y111F
VL: B9 VL with D28G, S91Y, N93S, L96W, G100Q

Assays:
[1] = molecular target: MERS-CoV S S1 subunit (MERS-S1) (MERS-CoV EMC isolate, UniProt K9N5Q8 19-748); assay: ForteBio Octet kinetic measurement (FIG. 3A)
[2] = molecular target: MERS-S on pseudotyped VSV particles (MERS-S carrying a 16-a.a. cytoplasmic tail truncation) (MERS-CoV, UniProt K9N5Q8 18-1337); assay: cell-based or functional assay

Row | Binder | Kd [1] [nM] | IC50, neutralization of MERS-S pseudovirus infectivity (H2L2) [2] [ng/mL]
1 | B1 | ~0.54 | 
2 | B2 | ~0.3 | ~1.7
3 | B3 | ~0.44 | 
4 | B4 | ~1.9 | 
5 | B5 | ~0.36 | 
6 | B6 | ~0.11 | 
7 | B7 | ~1.1 | 
8 | B8 | ~0.35 | 
9 | B9 | ~0.2 | 
10 | B10 | ~0.43 | 
11 | B11 | ~0.36 | ~0.81
12 | B12 | ~0.4 | 
13 | B13 | ~0.21 | 
14 | B14 | ~6 | 
15 | B15 | ~0.12 | 
16 | B16 | ~0.13 | 
17 | B17 | ~0.13 | 
18 | B18 | ~0.12 | 
19 | B19 | ~0.86 | 
20 | B20 | ~0.11 | 
21 | B21 | ~0.68 | 
